# Literature values as cited in article PMC11231438.
# pKd: −log10 of the molar value.
# Target: plasminogen (Homo sapiens) (UniProt P00747)
# Sequence of UniProt P00747 (P00747 20-810): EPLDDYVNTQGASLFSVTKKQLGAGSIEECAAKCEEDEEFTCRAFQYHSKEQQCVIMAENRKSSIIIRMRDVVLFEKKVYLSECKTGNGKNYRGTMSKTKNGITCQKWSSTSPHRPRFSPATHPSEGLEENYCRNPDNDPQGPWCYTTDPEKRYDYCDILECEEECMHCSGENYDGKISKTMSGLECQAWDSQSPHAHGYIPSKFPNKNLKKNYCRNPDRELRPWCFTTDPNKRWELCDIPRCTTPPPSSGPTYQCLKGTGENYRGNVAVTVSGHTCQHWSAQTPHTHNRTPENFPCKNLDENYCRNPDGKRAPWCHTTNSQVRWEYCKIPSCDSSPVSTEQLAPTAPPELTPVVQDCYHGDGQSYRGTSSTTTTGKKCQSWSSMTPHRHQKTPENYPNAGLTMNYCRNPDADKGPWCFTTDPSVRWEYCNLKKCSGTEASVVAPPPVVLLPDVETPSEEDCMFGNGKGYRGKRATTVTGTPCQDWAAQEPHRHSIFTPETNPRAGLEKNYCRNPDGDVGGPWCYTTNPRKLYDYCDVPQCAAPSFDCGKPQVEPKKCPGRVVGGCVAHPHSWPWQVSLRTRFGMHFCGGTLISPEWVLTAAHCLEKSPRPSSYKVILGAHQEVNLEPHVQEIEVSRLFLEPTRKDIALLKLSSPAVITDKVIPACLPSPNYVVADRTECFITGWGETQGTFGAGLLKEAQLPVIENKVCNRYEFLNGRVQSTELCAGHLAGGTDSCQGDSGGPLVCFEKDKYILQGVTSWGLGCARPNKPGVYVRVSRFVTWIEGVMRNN
substance,measurement,value
enolase (from UniProt Q96X30),pKd,6.28
